How the values were obtained:
CyPPO17 = assay: PPO enzyme activity of MBP-fused CyPPO17 wild type and variants; type: biochemical, Thermosynechococcus sp. NK55a; settings: PPO enzyme activity relative to wild type; MBP-fused protein, 50 μM protoporphyrinogen IX, room temperature, 30 min
Procedure: (§1) Thus, PPO proteins of wild type and variants were expressed as fused to MBP and were used for experiments.
(§2) The following process for purification of PPO protein was performed in a 4° C. cold room. Amylose resin (NEB) was packed to 1.5×15 cm column (Bio-Rad, Econo Columns 1.5×15 cm, glass chromatography column, max. vol), and the obtained protein extracts were loaded to the column at a flow rate of 0.2 ml/min. The column was washed with 3 column volumes of buffer and the presence of protein in the washing solution was examined. When the protein was no longer detected, the washing procedure was terminated. Then, the MBP-PPO protein was eluted with approximately 2 column volumes of buffer containing 20 mM maltose. The protein concentration of each eluent was determined and the elution was stopped when the protein was no longer detected. Ten microliter of each fraction was investigated for protein quantification and SDS-PAGE analysis. The highly pure fractions of PPO protein variants were used for the enzyme assay.
(§3) Since protoporphyrinogen IX, a substrate of PPO protein, was not commercially available, it was chemically synthesized in the laboratory. Overall process was performed in dark under nitrogen stream. […] of protoporphyrin IX was dissolved in 20 ml of 20% (v/v) EtOH, and stirred under dark condition for 30 minutes. The obtained protoporphyrin IX solution was put into a 15 ml screw tube in an amount of 800 μl, and flushed with nitrogen gas for 5 minutes. To this, 1.5 g of sodium amalgam was added and vigorously shaken for 2 minutes. The lid was opened to exhaust hydrogen gas in the tube. Thereafter, the lid was closed and incubated for 3 minutes. The protoporphyrinogen IX solution was filtered using syringe and cellulose membrane filter. […] To determine the enzyme activity of PPO protein, a reaction mixture was prepared with the following composition (based on 10 ml): 50 mM Tris-Cl (pH 8.0); 50 mM NaCl; 0.04% (v/v) Tween 20; 40 mM glucose (0.072 g); 5 units glucose oxidase (16.6 mg); and 10 units catalase (1 μl).
(§4) Hundred and eighty microliters of a reaction mixture containing the purified PPO protein were placed in 96 well plates and 20 μl of […] were added. […] The reaction proceeded at room temperature for 30 min and the fluorescence of protoporphyrin IX was measured using Microplate reader (Sense, Hidex) (excitation: 405 nm; emission: 633 nm). […] To this, 2.7 N HCl was added, and the absorbance at 408 nm was measured. A standard curve was generated using standard protoporphyrin IX, and PPO activity was measured by calibration of protoporphyrin IX using the standard curve of protoporphyrin IX.
(§5) Activities of variants were presented relatively compared to that of wild type.

CyPPO16 [1] = assay: Herbicide tolerance test of CyPPO16 wild type and variants in PPO-deficient E. coli BT3(ΔPPO); type: cell-based, Spirulina subsalsa; settings: BT3(ΔPPO) transformants, two or more amino acid mutations, dark; for Herbicide tolerance, tiafenacil: 37° C., 16 to 20 hours, relative to wild type at highest concentration (50, 200 μM); for Herbicide tolerance, flumioxazin: relative to wild type at highest concentration (25, 50 μM); for Herbicide tolerance, sulfentrazone: relative to wild type at highest concentration (2000, 4000 μM)
Procedure: The mutated CyPPO gene obtained from the Example 2 was transformed to BT3 (ΔPPO) strain which is deficient of PPO activity and cultured in LB media with PPO-inhibiting herbicide, thereby examining whether growth of transformed BT3 was not inhibited.
BT3 competent cells were transformed with the pET303-CyPPO16 and pET303-CyPPO17 plasmids and those with a mutation(s) constructed in Example 2 respectively, and were cultured in LB agar media containing carbenicillin (Gold Biotechnology, Co., Ltd.).
Single colony of E. coli transformed with each CyPPO gene was cultured in 3 ml of LB broth containing carbenicillin overnight, and then was subcultured until absorbance (0D600) reached 0.5 to 1. Then, it was diluted with LB broth to OD600=0.5. Again, the diluted solution was serially diluted 4 times by a factor of one tenth.
The LB agar media (LB 25 g/l, Bacto agar 15 g/l) containing carbenicillin (100 μg/ml) and 0 to 4,000 μM of various herbicides dissolved in DMSO was prepared. Next, 10 μl of each diluted solution was dropped on the plate and cultured at 37° C. under light (Tables 7 and 9, FIGS. 2 to 6, and 18 to 22) or dark (Tables 8 and 10, FIGS. 7 to 17, and 23 to 33) for 16 to 20 hours. Then, extent of tolerance was evaluated.
The extent of herbicide tolerance of the mutated genes was evaluated by comparing that of mutated genes with that of wild type. The relative tolerance was represented with “+” as a factor of 10 times. Evaluation result was listed in Tables 7 to10 and FIGS. 2 to 33:
In Tables 7 to 10, tolerance level was presented as of tolerance of wild type and of variants equivalent to that of wild type, and was done as ‘+’ per each 10 fold resistance until ‘+++++’ as maximal resistance. (Tolerance level was evaluated by relative growth level of variants to that of wild type in the media containing highest concentration of herbicide; ‘+’=1-9 fold higher tolerance, ‘++’=10-99 fold higher tolerance, ‘+++’=100-999 fold higher tolerance, ‘++++’=1,000-9,999 fold higher tolerance, ‘+++++’=more than 10,000 fold higher tolerance)
The concentrations of herbicides were written above the photographs of tolerance test. A dilution series (0D600=0.5, 0.05, 0.005, 0.0005, 0.00005) was made and spotted on LB agar plates supplemented with herbicides.

CyPPO16 [2] = assay: PPO enzyme activity of MBP-fused CyPPO16 wild type and variants; type: biochemical, Spirulina subsalsa; settings: PPO enzyme activity relative to wild type; MBP-fused protein, 50 μM protoporphyrinogen IX, room temperature, 30 min
Procedure: as §1, §2, §3, §4, §5

Molecule | Activity (%) (CyPPO17) | Herbicide tolerance, tiafenacil (CyPPO16 [1]) | Herbicide tolerance, flumioxazin (CyPPO16 [1]) | Herbicide tolerance, sulfentrazone (CyPPO16 [1]) | Activity (%) (CyPPO16 [2])
V304M: CyPPO17 variant (protein, Synthetic (Protoporphyrinogen IX oxidase (CyPPO17) of Thermosynechococcus sp. NK55a), CyPPO17 variant) MEVDVAIVGGGLSGLSVAWRLQQSAPQYSGVLLEASDRLGGNITTQGAEGFVWELGPNSFAPTPALLQLIAEVGLHSELIRGDRHLPRYIYWRGELYPLEPTRPLALATSNLLSPWGKVRAALGALGFVPPYLGSGDESVNSFFRRHLGQEVAERLVAPFVSGVYAGDPQQLSAAAAFRRIAQLEKLGGGLIAGALRLRRQQPPKPRPPAEVQMRPGELGSFKEGLAALPRAIAQQLKAPVHLQTPVEAITPEPNGGYLLRSGEQTWQARSVVLATPAYQTAALVAPFQPAIARVLAAIPYPTMACVVLAYPAGLGRSVRPGFGVLIPRGQGIRTLGTIWSSCLFPQRTPAGWQVFTSFIGGATDPDLASLREEAIVQQVQQDLTRLLDLPAAKARLLGMKVWRRAIPQYLVGYPQQWQQVTHALSQTPGLFLCSNYAEGVALGDRVEHGNRTAAAVAAYLSGGQS | 82 | – | – | – | –
I339T: CyPPO17 variant (protein, Synthetic (Protoporphyrinogen IX oxidase (CyPPO17) of Thermosynechococcus sp. NK55a), CyPPO17 variant) MEVDVAIVGGGLSGLSVAWRLQQSAPQYSGVLLEASDRLGGNITTQGAEGFVWELGPNSFAPTPALLQLIAEVGLHSELIRGDRHLPRYIYWRGELYPLEPTRPLALATSNLLSPWGKVRAALGALGFVPPYLGSGDESVNSFFRRHLGQEVAERLVAPFVSGVYAGDPQQLSAAAAFRRIAQLEKLGGGLIAGALRLRRQQPPKPRPPAEVQMRPGELGSFKEGLAALPRAIAQQLKAPVHLQTPVEAITPEPNGGYLLRSGEQTWQARSVVLATPAYQTAALVAPFQPAIARVLAAIPYPTVACVVLAYPAGLGRSVRPGFGVLIPRGQGIRTLGTTWSSCLFPQRTPAGWQVFTSFIGGATDPDLASLREEAIVQQVQQDLTRLLDLPAAKARLLGMKVWRRAIPQYLVGYPQQWQQVTHALSQTPGLFLCSNYAEGVALGDRVEHGNRTAAAVAAYLSGGQS | 48 | – | – | – | –
F323V: CyPPO17 variant (protein, Synthetic (Protoporphyrinogen IX oxidase (CyPPO17) of Thermosynechococcus sp. NK55a), CyPPO17 variant) MEVDVAIVGGGLSGLSVAWRLQQSAPQYSGVLLEASDRLGGNITTQGAEGFVWELGPNSFAPTPALLQLIAEVGLHSELIRGDRHLPRYIYWRGELYPLEPTRPLALATSNLLSPWGKVRAALGALGFVPPYLGSGDESVNSFFRRHLGQEVAERLVAPFVSGVYAGDPQQLSAAAAFRRIAQLEKLGGGLIAGALRLRRQQPPKPRPPAEVQMRPGELGSFKEGLAALPRAIAQQLKAPVHLQTPVEAITPEPNGGYLLRSGEQTWQARSVVLATPAYQTAALVAPFQPAIARVLAAIPYPTVACVVLAYPAGLGRSVRPGVGVLIPRGQGIRTLGTIWSSCLFPQRTPAGWQVFTSFIGGATDPDLASLREEAIVQQVQQDLTRLLDLPAAKARLLGMKVWRRAIPQYLVGYPQQWQQVTHALSQTPGLFLCSNYAEGVALGDRVEHGNRTAAAVAAYLSGGQS | 16 | – | – | – | –
L326T: CyPPO17 variant (protein, Synthetic (Protoporphyrinogen IX oxidase (CyPPO17) of Thermosynechococcus sp. NK55a), CyPPO17 variant) MEVDVAIVGGGLSGLSVAWRLQQSAPQYSGVLLEASDRLGGNITTQGAEGFVWELGPNSFAPTPALLQLIAEVGLHSELIRGDRHLPRYIYWRGELYPLEPTRPLALATSNLLSPWGKVRAALGALGFVPPYLGSGDESVNSFFRRHLGQEVAERLVAPFVSGVYAGDPQQLSAAAAFRRIAQLEKLGGGLIAGALRLRRQQPPKPRPPAEVQMRPGELGSFKEGLAALPRAIAQQLKAPVHLQTPVEAITPEPNGGYLLRSGEQTWQARSVVLATPAYQTAALVAPFQPAIARVLAAIPYPTVACVVLAYPAGLGRSVRPGFGVTIPRGQGIRTLGTIWSSCLFPQRTPAGWQVFTSFIGGATDPDLASLREEAIVQQVQQDLTRLLDLPAAKARLLGMKVWRRAIPQYLVGYPQQWQQVTHALSQTPGLFLCSNYAEGVALGDRVEHGNRTAAAVAAYLSGGQS | 96 | – | – | – | –
L327T + F360M: CyPPO16 variant (protein, Synthetic (Protoporphyrinogen IX oxidase (CyPPO16) of Spirulina subsalsa), CyPPO16 variant) MLDSLIVGAGISGLSAAHTLQKQQTQFLVTESQGRVGGNITTNRQGDYLWEEGPNSFAPTEDLLRLAVEVGLKEDLVFADRRLPRFVYWNQQLHPVPMSPPAALKTQLLSEAGKWRAALGALGFVGGLVGREEETVRQFFTRHLGTEVTERLVAPFVSGVYAGDVDQLSAQAAFRRVFEFAQLGGGLAAGGILARRQAPPKAPPDPSLPETKTGQLGSFREGLEMLPRAIASQLGDRLKLQWRLTHLEITPQQTYLAHFNTPDGPQQIATRTLILTTPAPITADLLKPLTPALHGVLKEIYYPPVACVVLAYPRAASARPLEGFGHTIPRNQGIRTLGTIWSSCLFPGRTPEGEHLLTNMIGGATDPGIAQLDPEEIAQAVHQDLCKILIRPEFTPKILAVRLWKQAIPQYTLGHLQRLATLEQELSKFPGLHILANYTDGVALGDCVKRGVAVAQKIRSRE | – | ++++ (‘++++’=1,000-9,999 fold higher tolerance) | ++++ (‘++++’=1,000-9,999 fold higher tolerance) | ++ (‘++’=10-99 fold higher tolerance) | 21
A162C + L327T + F360M: CyPPO16 variant (protein, Synthetic (Protoporphyrinogen IX oxidase (CyPPO16) of Spirulina subsalsa), CyPPO16 variant) MLDSLIVGAGISGLSAAHTLQKQQTQFLVTESQGRVGGNITTNRQGDYLWEEGPNSFAPTEDLLRLAVEVGLKEDLVFADRRLPRFVYWNQQLHPVPMSPPAALKTQLLSEAGKWRAALGALGFVGGLVGREEETVRQFFTRHLGTEVTERLVAPFVSGVYCGDVDQLSAQAAFRRVFEFAQLGGGLAAGGILARRQAPPKAPPDPSLPETKTGQLGSFREGLEMLPRAIASQLGDRLKLQWRLTHLEITPQQTYLAHFNTPDGPQQIATRTLILTTPAPITADLLKPLTPALHGVLKEIYYPPVACVVLAYPRAASARPLEGFGHTIPRNQGIRTLGTIWSSCLFPGRTPEGEHLLTNMIGGATDPGIAQLDPEEIAQAVHQDLCKILIRPEFTPKILAVRLWKQAIPQYTLGHLQRLATLEQELSKFPGLHILANYTDGVALGDCVKRGVAVAQKIRSRE | – | +++++ (‘+++++’=more than 10,000 fold higher tolerance) | +++++ (‘+++++’=more than 10,000 fold higher tolerance) | ++++ (‘++++’=1,000-9,999 fold higher tolerance) | 17

Reference: US11219221B2 (FarmHannong Co., Ltd., priority 2017, dated 2022)
